Biological target: β subunit of Roseobacter denitrificans propionyl-coenzyme A carboxylase (Roseobacter denitrificans)
Test: crystal structure

## β subunit of Roseobacter denitrificans propionyl-coenzyme A carboxylase
  stoichiometry N: 6

— paper PMC2925307
